In PMC9262799, “The first step into phenolic metabolism in the hornwort Anthoceros agrestis: molecular and biochemical characterization of two phenylalanine ammonia-lyase isoforms” (Planta, 2022):

Key:
Format in all cases: biochemical, Anthoceros agrestis
[1] = tested on: T1, N[C@@H](Cc1ccccc1)C(=O)O; experiment: HPLC of t-cinnamic acid formed, Michaelis-Menten fit; details: boric acid/sodium tetraborate buffer pH 8.8, 36 °C, 10 min, 1-500 µM Phe
T1 construct: full-length, 752 residues (81,895 Da), N-terminal 6xHis-tag kept (84,058 Da with tag), pET15b, E. coli SoluBL21, Ni-NTA; cDNA from suspension culture; PALs mostly homotetramers, oligomer not measured here
From the text: HPLC of t-cinnamic acid formed, Michaelis-Menten fit on AaPAL1

[2] = tested on: T2, N[C@@H](Cc1ccc(O)cc1)C(=O)O; experiment: HPLC of 4-coumaric acid formed, Michaelis-Menten fit; details: boric acid/sodium tetraborate buffer pH 8.8, 36 °C, 10 min, 0-9.6 mM Tyr
T2 construct: full-length, 752 residues (81,895 Da), N-terminal 6xHis-tag kept (84,058 Da with tag), pET15b, E. coli SoluBL21, Ni-NTA; cDNA from suspension culture; PALs mostly homotetramers, oligomer not measured here
From the text: HPLC of 4-coumaric acid formed, Michaelis-Menten fit on AaPAL1

[3] = tested on: T3, N[C@@H](Cc1ccc(O)cc1)C(=O)O; experiment: as above; details: boric acid/sodium tetraborate buffer pH 8.8, 36 °C, 15 min, 0-9.6 mM Tyr
T3 construct: full-length, 753 residues (81,704 Da), N-terminal 6xHis-tag kept (83,867 Da with tag), pET15b, E. coli SoluBL21, Ni-NTA; cDNA from suspension culture; PALs mostly homotetramers, oligomer not measured here
From the text: HPLC of 4-coumaric acid formed, Michaelis-Menten fit on AaPAL2

[4] = tested on: T4, N[C@@H](Cc1ccccc1)C(=O)O; experiment: HPLC of t-cinnamic acid formed, Michaelis-Menten fit; details: boric acid/sodium tetraborate buffer pH 8.8, 36 °C, 4 min, 1-500 µM Phe
T4 construct: full-length, 753 residues (81,704 Da), N-terminal 6xHis-tag kept (83,867 Da with tag), pET15b, E. coli SoluBL21, Ni-NTA; cDNA from suspension culture; PALs mostly homotetramers, oligomer not measured here
From the text: HPLC of t-cinnamic acid formed, Michaelis-Menten fit on AaPAL2

AaPAL2 (Anthoceros agrestis), sequence (chain, as listed by the source): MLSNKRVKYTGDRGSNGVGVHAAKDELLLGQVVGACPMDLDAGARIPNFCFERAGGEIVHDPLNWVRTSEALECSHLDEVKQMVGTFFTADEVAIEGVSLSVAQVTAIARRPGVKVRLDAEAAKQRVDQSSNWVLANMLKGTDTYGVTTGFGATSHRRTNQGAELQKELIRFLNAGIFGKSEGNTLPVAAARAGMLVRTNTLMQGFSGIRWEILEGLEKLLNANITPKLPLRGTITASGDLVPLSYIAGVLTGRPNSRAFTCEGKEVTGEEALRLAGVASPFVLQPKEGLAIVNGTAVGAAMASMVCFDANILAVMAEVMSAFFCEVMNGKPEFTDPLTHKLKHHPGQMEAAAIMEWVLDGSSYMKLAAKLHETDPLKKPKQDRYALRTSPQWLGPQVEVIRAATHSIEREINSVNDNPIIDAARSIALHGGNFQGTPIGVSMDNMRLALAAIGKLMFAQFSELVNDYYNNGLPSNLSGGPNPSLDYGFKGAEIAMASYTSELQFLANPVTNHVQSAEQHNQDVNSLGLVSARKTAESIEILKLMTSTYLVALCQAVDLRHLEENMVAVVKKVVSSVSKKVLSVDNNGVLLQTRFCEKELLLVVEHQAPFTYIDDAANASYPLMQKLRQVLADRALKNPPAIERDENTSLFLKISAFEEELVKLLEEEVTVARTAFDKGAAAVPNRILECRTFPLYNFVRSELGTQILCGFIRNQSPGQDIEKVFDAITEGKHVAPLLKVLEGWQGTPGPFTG
AaPAL1 (Anthoceros agrestis), sequence (chain, as listed by the source): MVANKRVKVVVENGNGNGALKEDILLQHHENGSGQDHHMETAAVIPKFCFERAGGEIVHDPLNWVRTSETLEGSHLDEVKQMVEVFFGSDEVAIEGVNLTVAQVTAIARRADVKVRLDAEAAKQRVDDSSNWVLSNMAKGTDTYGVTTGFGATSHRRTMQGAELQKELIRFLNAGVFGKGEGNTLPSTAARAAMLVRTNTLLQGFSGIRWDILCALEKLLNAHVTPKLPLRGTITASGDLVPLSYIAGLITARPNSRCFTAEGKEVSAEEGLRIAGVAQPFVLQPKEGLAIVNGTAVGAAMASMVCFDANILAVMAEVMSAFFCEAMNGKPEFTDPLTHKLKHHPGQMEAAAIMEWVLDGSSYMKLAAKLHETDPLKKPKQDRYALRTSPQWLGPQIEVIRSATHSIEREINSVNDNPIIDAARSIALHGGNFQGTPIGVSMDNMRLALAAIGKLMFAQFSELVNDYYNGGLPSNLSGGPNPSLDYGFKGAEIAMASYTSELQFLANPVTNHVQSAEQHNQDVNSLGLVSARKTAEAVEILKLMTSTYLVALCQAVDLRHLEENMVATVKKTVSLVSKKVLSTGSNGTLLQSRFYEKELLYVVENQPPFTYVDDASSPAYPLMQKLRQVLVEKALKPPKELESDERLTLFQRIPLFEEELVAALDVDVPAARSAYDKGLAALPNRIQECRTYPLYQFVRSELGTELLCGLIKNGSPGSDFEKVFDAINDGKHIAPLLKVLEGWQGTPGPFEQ

AaPAL1 (Anthoceros agrestis)
Km [1]: 39 ± 15 µM | Vmax [1]: 0.252 µmol/min/mg | kcat [1]: 0.353 s⁻¹ | kcat/Km [1]: 9050 M⁻¹ s⁻¹ | Km [2]: 3308 ± 987 µM | Vmax [2]: 0.058 µmol/min/mg | kcat [2]: 0.081 s⁻¹ | kcat/Km [2]: 24.5 M⁻¹ s⁻¹

AaPAL2 (Anthoceros agrestis)
Km [3]: 3526 ± 617 µM | Vmax [3]: 0.0296 µmol/min/mg | kcat [3]: 0.041 s⁻¹ | kcat/Km [3]: 11.6 M⁻¹ s⁻¹ | Km [4]: 18 ± 4 µM | Vmax [4]: 0.206 µmol/min/mg | kcat [4]: 0.288 s⁻¹ | kcat/Km [4]: 16000 M⁻¹ s⁻¹
